In patent US20250313605A1 one finds cAMP EC50 (0.1% casein), cAMP EC50 (FBS and BSA present) and Ki data, which are given here for six molecules.

The target in assay [1] is human glucagon receptor (human), P47871. Nature of the assay: cell-based or functional assay.
The target of assay [2] is T1, human GLP-1 receptor (human), P43220.
T1 chain: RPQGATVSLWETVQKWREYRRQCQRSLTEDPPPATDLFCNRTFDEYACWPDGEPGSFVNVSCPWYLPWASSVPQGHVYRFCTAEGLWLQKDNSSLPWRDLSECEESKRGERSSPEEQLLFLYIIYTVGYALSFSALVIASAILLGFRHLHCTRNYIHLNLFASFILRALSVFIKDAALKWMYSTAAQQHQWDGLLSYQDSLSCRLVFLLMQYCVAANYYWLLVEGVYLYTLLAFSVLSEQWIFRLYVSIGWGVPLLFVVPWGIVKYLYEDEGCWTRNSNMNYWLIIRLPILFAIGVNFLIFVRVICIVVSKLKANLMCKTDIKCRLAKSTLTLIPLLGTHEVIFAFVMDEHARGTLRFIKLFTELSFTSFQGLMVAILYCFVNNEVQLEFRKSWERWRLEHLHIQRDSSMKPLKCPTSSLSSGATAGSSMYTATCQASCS
Nature of the assay: cell-based or functional assay.

Assay [3] addresses T2, human GIP receptor (human), P48546.
T2 chain: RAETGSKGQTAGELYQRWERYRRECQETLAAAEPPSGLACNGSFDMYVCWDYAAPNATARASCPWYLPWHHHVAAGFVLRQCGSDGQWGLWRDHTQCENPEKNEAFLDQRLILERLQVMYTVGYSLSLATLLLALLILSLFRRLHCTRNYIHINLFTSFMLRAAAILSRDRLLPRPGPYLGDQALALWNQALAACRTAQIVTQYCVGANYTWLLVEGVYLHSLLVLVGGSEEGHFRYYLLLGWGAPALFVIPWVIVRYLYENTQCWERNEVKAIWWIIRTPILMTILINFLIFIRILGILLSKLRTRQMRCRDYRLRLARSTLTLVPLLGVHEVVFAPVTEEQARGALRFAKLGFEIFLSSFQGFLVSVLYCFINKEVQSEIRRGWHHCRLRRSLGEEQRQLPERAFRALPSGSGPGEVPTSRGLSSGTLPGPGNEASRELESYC
Briefly: cell-based or functional assay.

For assay [4], the target named is human glucagon receptor (human), P47871. Nature of the assay: radioligand competition SPA, HEK293 membranes.
In assay [5] the target is T1, human GLP-1 receptor (human), P43220. Briefly: radioligand competition SPA, HEK293 membranes.
The target in assay [6] is T2, human GIP receptor (human), P48546. Briefly: radioligand competition SPA, HEK293 membranes.

*1 amine or outer side, *2 acyl side, *3 side chain or, on linkers, in order; H or OH if unused. Where no end group is shown, it is not given here. Side-chain parts run from the residue outwards. [ ]: non-standard residue; d: D form. The star is where a group is joined. C20 diacid = O=C(O)CCCCCCCCCCCCCCCCCCC(=O)*; γGlu = O=C(O)[C@H](CCC(=O)[*:2])N[*:1]; αMeL = CC(C)C[C@](C)(N)C(=O)O; αMeK = C[C@](N)(CCCCN)C(=O)O; AEEA = NCCOCCOCC(=O)O; Aib = CC(C)(N)C(=O)O

Chain of human glucagon receptor (human), P47871 (P47871 26-477): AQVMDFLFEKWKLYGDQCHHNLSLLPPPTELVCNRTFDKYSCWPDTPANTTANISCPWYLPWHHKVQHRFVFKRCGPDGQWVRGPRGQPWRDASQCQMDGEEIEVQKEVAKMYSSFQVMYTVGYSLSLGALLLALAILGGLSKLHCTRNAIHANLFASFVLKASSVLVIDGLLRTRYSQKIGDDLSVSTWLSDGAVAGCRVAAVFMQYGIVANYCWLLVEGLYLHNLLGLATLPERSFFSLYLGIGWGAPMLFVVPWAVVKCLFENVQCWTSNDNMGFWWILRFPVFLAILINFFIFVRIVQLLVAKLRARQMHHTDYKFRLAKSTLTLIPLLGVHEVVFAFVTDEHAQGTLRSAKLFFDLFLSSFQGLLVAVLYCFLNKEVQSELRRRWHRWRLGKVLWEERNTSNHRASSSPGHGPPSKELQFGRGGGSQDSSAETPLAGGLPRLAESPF

Turning to Y[Aib]QGTFTSDYSI[αMeL]LDKK([AEEA-AEEA-γGlu-C20 diacid])AQHAFIEYLLEGGPSSGAPPPS-NH2 [Example 7], the cAMP EC50 (0.1% casein) stood at 0.18 nM in assay [1], 0.109 nM in assay [2] and 0.0798 nM in assay [3]. Further, the cAMP EC50 (FBS and BSA present) in assay [1] came out at 14.2 nM; in assay [2], 15.5 nM; in assay [3], 4.38 nM. The inhibitory constant (Ki) was 16.3 nM in assay [4], 21.4 nM in assay [5] and 0.11 nM in assay [6].

B1: Example 5 (peptide)
peptide: Y[Aib]QGTFTSDYSI[αMeL]LDKK([AEEA-AEEA-γGlu-C20 diacid])AAQAFIEYLLE[Aib]GPSSGAPPPS-NH2
modifications: N-terminus assumed
SMILES: CC[C@H](C)[C@H](NC(=O)[C@H](Cc1ccccc1)NC(=O)[C@H](C)NC(=O)[C@H](CCC(N)=O)NC(=O)[C@H](C)NC(=O)[C@H](C)NC(=O)[C@H](CCCCNC(=O)COCCOCCNC(=O)COCCOCCNC(=O)CC[C@H](NC(=O)CCCCCCCCCCCCCCCCCCC(=O)O)C(=O)O)NC(=O)[C@H](CCCCN)NC(=O)[C@H](CC(=O)O)NC(=O)[C@H](CC(C)C)NC(=O)[C@](C)(CC(C)C)NC(=O)[C@@H](NC(=O)[C@H](CO)NC(=O)[C@H](Cc1ccc(O)cc1)NC(=O)[C@H](CC(=O)O)NC(=O)[C@H](CO)NC(=O)[C@@H](NC(=O)[C@H](Cc1ccccc1)NC(=O)[C@@H](NC(=O)CNC(=O)[C@H](CCC(N)=O)NC(=O)C(C)(C)NC(=O)[C@@H](N)Cc1ccc(O)cc1)[C@@H](C)O)[C@@H](C)O)[C@@H](C)CC)C(=O)N[C@@H](CCC(=O)O)C(=O)N[C@@H](Cc1ccc(O)cc1)C(=O)N[C@@H](CC(C)C)C(=O)N[C@@H](CC(C)C)C(=O)N[C@@H](CCC(=O)O)C(=O)NC(C)(C)C(=O)NCC(=O)N1CCC[C@H]1C(=O)N[C@@H](CO)C(=O)N[C@@H](CO)C(=O)NCC(=O)N[C@@H](C)C(=O)N1CCC[C@H]1C(=O)N1CCC[C@H]1C(=O)N1CCC[C@H]1C(=O)N[C@@H](CO)C(N)=O
For B1, the values for the cAMP EC50 (0.1% casein) in assay [1], in assay [2] and in assay [3] were 0.0226 nM, 0.147 nM and 0.0757 nM, respectively. The cAMP EC50 (FBS and BSA present) in assay [1] came to 1.47 nM; in assay [2] it was 22.3 nM; in assay [3], 4.86 nM. For the same molecule, the Ki amounted to 0.422 nM in assay [4], 36.7 nM in assay [5] and 0.179 nM in assay [6].

B2: Example 20 (peptide)
peptide: Y[Aib]QGTFTSDYSILLDKK([AEEA-γGlu-C20 diacid])AQ[Aib]AFIEYLLE[Aib]GPSSGAPPPS-NH2
modifications: N-terminus assumed
SMILES: CC[C@H](C)[C@H](NC(=O)[C@H](Cc1ccccc1)NC(=O)[C@H](C)NC(=O)C(C)(C)NC(=O)[C@H](CCC(N)=O)NC(=O)[C@H](C)NC(=O)[C@H](CCCCNC(=O)COCCOCCNC(=O)CC[C@H](NC(=O)CCCCCCCCCCCCCCCCCCC(=O)O)C(=O)O)NC(=O)[C@H](CCCCN)NC(=O)[C@H](CC(=O)O)NC(=O)[C@H](CC(C)C)NC(=O)[C@H](CC(C)C)NC(=O)[C@@H](NC(=O)[C@H](CO)NC(=O)[C@H](Cc1ccc(O)cc1)NC(=O)[C@H](CC(=O)O)NC(=O)[C@H](CO)NC(=O)[C@@H](NC(=O)[C@H](Cc1ccccc1)NC(=O)[C@@H](NC(=O)CNC(=O)[C@H](CCC(N)=O)NC(=O)C(C)(C)NC(=O)[C@@H](N)Cc1ccc(O)cc1)[C@@H](C)O)[C@@H](C)O)[C@@H](C)CC)C(=O)N[C@@H](CCC(=O)O)C(=O)N[C@@H](Cc1ccc(O)cc1)C(=O)N[C@@H](CC(C)C)C(=O)N[C@@H](CC(C)C)C(=O)N[C@@H](CCC(=O)O)C(=O)NC(C)(C)C(=O)NCC(=O)N1CCC[C@H]1C(=O)N[C@@H](CO)C(=O)N[C@@H](CO)C(=O)NCC(=O)N[C@@H](C)C(=O)N1CCC[C@H]1C(=O)N1CCC[C@H]1C(=O)N1CCC[C@H]1C(=O)N[C@@H](CO)C(N)=O
As for B2, the results for the cAMP EC50 (0.1% casein) in assay [1], in assay [2] and in assay [3] were 0.0641 nM, 0.149 nM and 0.0572 nM, respectively. Besides, the results for the cAMP EC50 (FBS and BSA present) in assay [1], in assay [2] and in assay [3] were 3.97 nM, 20.6 nM and 3.7 nM, respectively. The Ki was 3.76 nM in assay [4], 9.23 nM in assay [5] and 0.109 nM in assay [6].

B3: Example 8 (peptide)
peptide: Y[Aib]QGTFTSDYSILLDKK([AEEA-AEEA-γGlu-C20 diacid])AQ[αMeK]AFIEYLLEGGPSSGAPPPS-NH2
modifications: N-terminus assumed
SMILES: CC[C@H](C)[C@H](NC(=O)[C@H](Cc1ccccc1)NC(=O)[C@H](C)NC(=O)[C@](C)(CCCCN)NC(=O)[C@H](CCC(N)=O)NC(=O)[C@H](C)NC(=O)[C@H](CCCCNC(=O)COCCOCCNC(=O)COCCOCCNC(=O)CC[C@H](NC(=O)CCCCCCCCCCCCCCCCCCC(=O)O)C(=O)O)NC(=O)[C@H](CCCCN)NC(=O)[C@H](CC(=O)O)NC(=O)[C@H](CC(C)C)NC(=O)[C@H](CC(C)C)NC(=O)[C@@H](NC(=O)[C@H](CO)NC(=O)[C@H](Cc1ccc(O)cc1)NC(=O)[C@H](CC(=O)O)NC(=O)[C@H](CO)NC(=O)[C@@H](NC(=O)[C@H](Cc1ccccc1)NC(=O)[C@@H](NC(=O)CNC(=O)[C@H](CCC(N)=O)NC(=O)C(C)(C)NC(=O)[C@@H](N)Cc1ccc(O)cc1)[C@@H](C)O)[C@@H](C)O)[C@@H](C)CC)C(=O)N[C@@H](CCC(=O)O)C(=O)N[C@@H](Cc1ccc(O)cc1)C(=O)N[C@@H](CC(C)C)C(=O)N[C@@H](CC(C)C)C(=O)N[C@@H](CCC(=O)O)C(=O)NCC(=O)NCC(=O)N1CCC[C@H]1C(=O)N[C@@H](CO)C(=O)N[C@@H](CO)C(=O)NCC(=O)N[C@@H](C)C(=O)N1CCC[C@H]1C(=O)N1CCC[C@H]1C(=O)N1CCC[C@H]1C(=O)N[C@@H](CO)C(N)=O
Regarding B3, the cAMP EC50 (0.1% casein) in assay [1] is 0.12 nM; in assay [2], 0.117 nM; in assay [3] it was 0.114 nM. Moreover, the cAMP EC50 (FBS and BSA present) in assay [1] was 6.24 nM; in assay [2], 9.39 nM; in assay [3] it was 2.23 nM. Moreover, the Ki in assay [4] came out at 30.4 nM; in assay [5], 29.4 nM; in assay [6] it was 0.0958 nM.

B4: Example 4 (peptide)
peptide: Y[Aib]QGTFTSDYSILLDKK([AEEA-γGlu-C20 diacid])AQ[Aib]AFIEYLLA[Aib]GPSSGAPPPS-NH2
modifications: N-terminus assumed
SMILES: CC[C@H](C)[C@H](NC(=O)[C@H](Cc1ccccc1)NC(=O)[C@H](C)NC(=O)C(C)(C)NC(=O)[C@H](CCC(N)=O)NC(=O)[C@H](C)NC(=O)[C@H](CCCCNC(=O)COCCOCCNC(=O)CC[C@H](NC(=O)CCCCCCCCCCCCCCCCCCC(=O)O)C(=O)O)NC(=O)[C@H](CCCCN)NC(=O)[C@H](CC(=O)O)NC(=O)[C@H](CC(C)C)NC(=O)[C@H](CC(C)C)NC(=O)[C@@H](NC(=O)[C@H](CO)NC(=O)[C@H](Cc1ccc(O)cc1)NC(=O)[C@H](CC(=O)O)NC(=O)[C@H](CO)NC(=O)[C@@H](NC(=O)[C@H](Cc1ccccc1)NC(=O)[C@@H](NC(=O)CNC(=O)[C@H](CCC(N)=O)NC(=O)C(C)(C)NC(=O)[C@@H](N)Cc1ccc(O)cc1)[C@@H](C)O)[C@@H](C)O)[C@@H](C)CC)C(=O)N[C@@H](CCC(=O)O)C(=O)N[C@@H](Cc1ccc(O)cc1)C(=O)N[C@@H](CC(C)C)C(=O)N[C@@H](CC(C)C)C(=O)N[C@@H](C)C(=O)NC(C)(C)C(=O)NCC(=O)N1CCC[C@H]1C(=O)N[C@@H](CO)C(=O)N[C@@H](CO)C(=O)NCC(=O)N[C@@H](C)C(=O)N1CCC[C@H]1C(=O)N1CCC[C@H]1C(=O)N1CCC[C@H]1C(=O)N[C@@H](CO)C(N)=O
In the case of B4, the cAMP EC50 (0.1% casein) in assay [1] was 0.0674 nM; in assay [2], 0.18 nM; in assay [3], 0.0648 nM. For the same molecule, the cAMP EC50 (FBS and BSA present) in assay [1] amounted to 2.49 nM; in assay [2] it was 10.4 nM; in assay [3] it was 1.55 nM. The Ki worked out at 2.55 nM in assay [4], 3.54 nM in assay [5] and 0.0374 nM in assay [6].

As for Y[Aib]QGTFTSDYSI[αMeL]LDKK([AEEA-AEEA-γGlu-C20 diacid])AAQAFIEYLLEGGPSSGAPPPS-NH2 [Example 6], the cAMP EC50 (0.1% casein) in assay [1] was 0.0282 nM; in assay [2] it was 0.142 nM; in assay [3], 0.274 nM. Besides, the values for the cAMP EC50 (FBS and BSA present) in assay [1], in assay [2] and in assay [3] were 1.99 nM, 21.2 nM and 7.41 nM, respectively. Besides, the values for the Ki in assay [4], in assay [5] and in assay [6] were 0.835 nM, 36.7 nM and 0.249 nM, respectively.
